Laboratory results as given in patent US20060177452A1 (BURNHAM INSTITUTE FOR MEDICAL RESEARCH, published 2006).
No end group written: not given here.

Columns and labels:
[1] = target: EphB4 ectodomain fused to human Fc, carboxy-terminal hexahistidine tag (human); assay: inhibition of ephrin-B2 AP binding to immobilized EphB4 ectodomain Fc
[2] = target: EphB4 ectodomain fused to human Fc, carboxy-terminal hexahistidine tag (human); assay: inhibition of ephrin-B2 AP binding to immobilized EphB4 ectodomain Fc (FIG. 6B)
[3] = target: T1, EphB4 ectodomain fused to human Fc, carboxy-terminal hexahistidine tag (human); assay: phage ELISA on immobilized EphB Fc
T1 chain: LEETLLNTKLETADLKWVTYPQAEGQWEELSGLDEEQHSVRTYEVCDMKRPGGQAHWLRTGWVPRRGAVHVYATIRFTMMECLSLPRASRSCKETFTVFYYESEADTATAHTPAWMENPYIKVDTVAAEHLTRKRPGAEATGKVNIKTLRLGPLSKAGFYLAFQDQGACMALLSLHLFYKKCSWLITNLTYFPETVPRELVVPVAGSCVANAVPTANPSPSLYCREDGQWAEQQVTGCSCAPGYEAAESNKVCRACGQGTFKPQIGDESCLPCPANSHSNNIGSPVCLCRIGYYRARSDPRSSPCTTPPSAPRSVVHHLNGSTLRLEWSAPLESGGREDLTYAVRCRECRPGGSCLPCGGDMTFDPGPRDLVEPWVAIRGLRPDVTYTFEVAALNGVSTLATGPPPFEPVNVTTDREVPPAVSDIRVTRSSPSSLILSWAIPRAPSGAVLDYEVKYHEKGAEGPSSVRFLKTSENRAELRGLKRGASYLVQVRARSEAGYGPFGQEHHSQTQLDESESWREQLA

[4] = target: EphB1 ectodomain fused to human Fc, carboxy-terminal hexahistidine tag (human); assay: inhibition of ephrin-B2 AP binding to immobilized EphB1 ectodomain Fc; biotinylated peptide
[5] = target: T2, EphB2 ectodomain fused to human Fc, carboxy-terminal hexahistidine tag (human); assay: inhibition of ephrin-B2 AP binding to immobilized EphB2 ectodomain Fc; biotinylated peptide
T2 chain: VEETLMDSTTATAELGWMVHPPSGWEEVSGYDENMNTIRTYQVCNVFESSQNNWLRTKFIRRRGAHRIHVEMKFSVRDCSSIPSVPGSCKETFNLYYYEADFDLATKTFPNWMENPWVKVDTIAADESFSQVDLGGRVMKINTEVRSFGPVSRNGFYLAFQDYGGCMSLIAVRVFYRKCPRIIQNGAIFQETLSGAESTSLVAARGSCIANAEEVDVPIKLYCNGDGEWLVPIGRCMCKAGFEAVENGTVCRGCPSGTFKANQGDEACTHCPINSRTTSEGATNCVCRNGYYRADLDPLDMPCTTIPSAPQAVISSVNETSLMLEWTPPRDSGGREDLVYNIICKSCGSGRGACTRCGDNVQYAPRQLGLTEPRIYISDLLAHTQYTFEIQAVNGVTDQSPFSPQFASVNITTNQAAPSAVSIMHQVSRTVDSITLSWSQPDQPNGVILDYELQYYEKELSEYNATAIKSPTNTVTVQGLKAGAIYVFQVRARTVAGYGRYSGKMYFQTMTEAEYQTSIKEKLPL

[6] = target: T1, EphB4 ectodomain fused to human Fc, …; assay: inhibition of ephrin-B2 AP binding to immobilized EphB4 ectodomain Fc (FIG. 6A)
[7] = target: T3, endogenous EphB4 of MCF7 human breast cancer cells (human, UniProt P54760 16-987); assay: biotinylated TNYL and streptavidin quantum dots, fluorescence microscopy of MCF-7 cells
T3 construct: whole, on cells; In pull-downs it stood in cell lysates; also called endogenous EphB4 (MCF-7)
T3 sequence (looked up): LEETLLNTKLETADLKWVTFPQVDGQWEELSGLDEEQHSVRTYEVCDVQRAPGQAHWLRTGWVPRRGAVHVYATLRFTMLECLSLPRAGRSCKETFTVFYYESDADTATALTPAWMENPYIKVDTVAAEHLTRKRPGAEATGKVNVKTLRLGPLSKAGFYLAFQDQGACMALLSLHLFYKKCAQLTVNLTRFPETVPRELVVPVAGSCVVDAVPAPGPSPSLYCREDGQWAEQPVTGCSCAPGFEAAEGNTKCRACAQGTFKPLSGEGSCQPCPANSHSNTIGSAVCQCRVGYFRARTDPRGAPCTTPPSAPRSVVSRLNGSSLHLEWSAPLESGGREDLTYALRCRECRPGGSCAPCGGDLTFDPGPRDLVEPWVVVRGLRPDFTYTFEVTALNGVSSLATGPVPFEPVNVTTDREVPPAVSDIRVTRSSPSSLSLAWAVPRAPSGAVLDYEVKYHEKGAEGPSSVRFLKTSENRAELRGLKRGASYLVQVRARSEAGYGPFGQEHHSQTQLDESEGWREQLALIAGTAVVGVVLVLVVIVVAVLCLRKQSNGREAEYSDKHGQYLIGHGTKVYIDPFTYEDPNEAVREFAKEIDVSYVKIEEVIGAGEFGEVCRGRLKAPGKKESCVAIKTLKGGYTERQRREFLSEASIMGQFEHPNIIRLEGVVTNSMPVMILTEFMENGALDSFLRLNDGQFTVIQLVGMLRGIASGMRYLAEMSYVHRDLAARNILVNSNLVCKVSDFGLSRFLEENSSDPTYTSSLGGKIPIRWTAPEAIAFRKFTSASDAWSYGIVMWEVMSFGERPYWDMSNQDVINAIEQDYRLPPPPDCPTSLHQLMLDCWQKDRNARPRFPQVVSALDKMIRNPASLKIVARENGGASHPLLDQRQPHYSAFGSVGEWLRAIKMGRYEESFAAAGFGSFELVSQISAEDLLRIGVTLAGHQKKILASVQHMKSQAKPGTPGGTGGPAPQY

[8] = target: T1, EphB4 ectodomain fused to human Fc, …; assay: inhibition of ephrin-B2 AP binding to immobilized EphB4 ectodomain Fc; biotinylated peptide
[9] = target: T2, EphB2 ectodomain fused to human Fc, …; assay: phage ELISA on immobilized EphB Fc

Molecule ephrin-B2 Fc (Fc fusion) has an IC50 [1] of 0.009 µM and an IC50 [2] of 9 µM.

For SGHQLLNKMPN (coat-protein fusion not described), the “% Binding” value [3] was 100%.

B1: AHTF peptide, synthetic, biotinylated (peptide)
peptide: AHTFPYPHPKPHGSGS
modifications: C-terminal biotin: on the Lys side chain of a GSGSK linker, or N-biotinyl-ethylenediamine after GSGS (which one is not stated)
For B1, the IC50 [4] was 150 µM.

B2: SHWPI peptide, synthetic, biotinylated (peptide)
peptide: SHWPISPYSLLSGSGS
modifications: also: C-terminal biotin, via GSGSK Lys side chain or biotinyl-ethylenediamine, not settled
Work on B2 yielded an IC50 [5] of over 100 µM.

B3: WHWT peptide, synthetic, biotinylated (peptide)
peptide: WHWTIEPFAITSGSGS
modifications: C-terminal biotin: on the Lys side chain of a GSGSK linker, or N-biotinyl-ethylenediamine after GSGS (which one is not stated)
Molecule B3 has an IC50 [5] of over 100 µM.

B4: DHWRI peptide, synthetic, biotinylated (peptide)
peptide: DHWRILPFSLSSGSGS
modifications: also: C-terminal biotin, via GSGSK Lys side chain or biotinyl-ethylenediamine, not settled
For B4, the IC50 [5] was over 100 µM.

With TNYLFSPNGPIARAW [TNYL-RAW peptide, non-biotinylated] the IC50 [6] was about 0.015 µM and the “fold lower IC50 than non-biotinylated TNYL” value [6] was 10000 fold.

In the case of TNYLFSPNGPIAGSGS (also: C-terminal biotin on linker (form not given here), also called biotinylated TNYL) [TNYL peptide, synthetic, biotinylated], the binding result [7] is reported as “binds” and the IC50 [8] is reported as about 50 µM.

B5: DALN peptide, synthetic, biotinylated (peptide)
peptide: DALNDWLLFRPWGSGS
modifications: also: C-terminal biotin, via GSGSK Lys side chain or biotinyl-ethylenediamine, not settled
In the case of B5, the IC50 [8] is reported as over 100 µM.

Molecule NPVIGPIQRAWTGSGS (also: C-terminal biotin on linker (form not given here)) [NPVI peptide, synthetic, biotinylated] has an IC50 [8] of over 500 µM.

B6: DHNH peptide, synthetic, biotinylated (peptide)
peptide: DHNHNLYNPWRLGSGS
modifications: also: C-terminal biotin, via GSGSK Lys side chain or biotinyl-ethylenediamine, not settled
In the case of B6, the IC50 [8] is reported as about 200 µM.

LPHGPVAAWDA (coat-protein fusion not described) was tested, and the “% Binding” value [9] was 15% and the “% Binding” value [3] was 100%.
